In article PMC10047488:

Tests used:
[1] = biological target: Gal4 DNA-binding domain fusion of HSD11B1L-181 fragment H2 (amino acids 92-181) (human); experiment: two-hybrid; yeast two-hybrid based growth assay: diploids spotted in serial dilution on SD/-Leu/-Trp or SD/-Ade/-His/-Leu/-Trp plates with 0, 1, 5 or 10 uM PMN (peiminine), 30 °C, 3 days; and OD600 in liquid selective medium every 12 h for 48 h
[2] = biological target: Gal4 DNA-binding domain fusion of parkin fragment P2 (amino acids 141-326) (human) (UniProt O60260); experiment: as above

Gal4 DNA-binding domain fusion of HSD11B1L-181 fragment H2 (amino acids 92-181) (human), sequence (Q7Z5J1 92-181): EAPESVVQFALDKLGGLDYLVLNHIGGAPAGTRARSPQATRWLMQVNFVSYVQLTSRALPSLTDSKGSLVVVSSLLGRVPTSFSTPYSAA

reduction of the growth rate in selective medium after 48 h, 10 mM PMN group against the DMSO group [1] [%] | reduction of the growth rate in selective medium after 48 h, 10 uM PMN group against the DMSO group [2] [%] | Substance
93 |  | Gal4 activation domain fusion of parkin fragment P2 (amino acids 141-326) (from UniProt O60260-1 141-326) (domain or fragment)
 | 95 | Gal4 activation domain fusion of HSD11B1L-181 fragment H2 (amino acids 92-181) (domain or fragment)
